Results published in a protein production outcome set (Wang et al. 2014).

Experiment: label from the status in PepcDB records

MNATAPGTPPNPPQSTGTLMPLVSFRRHRRIALMVMAVVVVFGAGFAWVKGKAVYSATAVLYVAPHFVNILKESKELDIPAYDQFIEHQALTVPRYDILLESLAKLGDRRYVWQKKKESDRRAAERLQAALEVKPVKDSYLITVTLESTTPDHLDELVNTIVDTYLEKSRESDSFFARNVRLTSLRERRGQIQGEIDAKLARRTEIAQELSVTTFSEQLASPYDKLLIESQNALAMAQRNRLASEAALALFEDRKSGQDAIAAAAFDTIQKDPGLISLKGSLYKRRSELLQQASGLDPRHPLKIQIDREFKEIDEELNRTVAKLTEQVAKSFIDQRKADVKRDRQIEQELSLQLESFRQKASWFAALYNEALSLSDEIERSRKQLDMIDERIEFFELESRAPGFVRVETYARPPELPVKGGRKKLFAVVLVLALALGAATPVGLDMLDQRIRTTGQVAKIIGHRPVAWFVEHHGSPDLKRMSADQLRRLAIAVNREREMHGSRLVSLTSVKPEAGVTDLALDLAAELGVLGVPTVVVEADPLRPDPRYRGGSAQPGLADLLAGSGEVTAAVVPAAGGLPARLGTGTAPGRQLFAYPALRRCLDELKAAYDLVLIDAPPLLLSADAEYLVEIADVTLLLVGAGQVKPGELRRAAGILEKIDPKAVGFVVTRLEVYRGGGYYAKLAEEFALAASHENGQKHTSRRLEG
protein production: failed

MNDIVEFLKVFIPLFIVIDPFGSLVLFTSMTYNFNEGEKMRATKDAVVYGGIILVMFALAGQFIIYFFGISIEALEMAGGVILLLMAVEMIMEGNRPKTSGSEVTTDLDIGIVPFATPLLAGPGAISLVIILMKGPLIDKIFTFVSIGIIFLMVYIFFKEASIVSKFIGNKAMKAVSRIFGLLLAGFAIQYFIDAVTALFLVH
protein production: failed

MNDIYFDDNRHNWNDRARLHEEAGYGIDKLLSDRDYITPEVEQDKDLIGDLTNKDVLHLQCHLGTDTISLARLGARRVLGLDLSDESLRRARNLAKKAGVSIDFIEGNVYDAREVIVGDFDLIYTSLGVLCWLPDITAWGRVVASLLKSGGKFIIRDDHPMFMTIGEDVRDGFKIEQPYFEQSQPMTWEDEGSYIETDASFEKIKNTRNHQWNHALSEIIMALINAGLQIDLVSESQHAAWNIWPHLMEKCSDGSYRLKKHSEVLPLQFLISAHKPEA
protein production: failed

MNDTLTLDEVVEFAENPEPRCPCVLLLDTSGSMQGAAIEALNQGLLSLKDELMKNSIAARRVEIAIVTFDSHINVIQDFVTADQFNPPILTAQGLTSMGAGIHKALDMVQERKSLYRANGVAYYRPWVFMITDGEPQGELDHLVEQAALRLQGDEVNKRVAFFSVGVENANMTRLNQIAVRTPLKLKGLNFIEMFVWLSASMSAVSHSQIDEQVALPPIGWGSI
protein production: failed

MNDTSNPYATPASALQPTQAVPPVIGDYDFRIGDVISEAWAKIKGVKGILIGAFVVYSVVIQTITFILTLLFGGIGLMSEADPIAFAVGQMIASLVATAVGYPFFTGLTMIGIRRAADQPATFNEMFNYFGMLVPLLLTGLLMMLMVYVGFFLLIIPGLYLSVAYMLALPLVAERGLTPWQALETSRKAISRHWFKVFGLLLVLSLLMLVSMIPLFIGLIWTGPLFVVSMGILYRTIFGVRPLGN
protein production: failed

MNEADMLFSVTVPGSTANLGPGFDSVGMALSRYLKLTVFESDKWSFEAETETVAGIPAGTDNLIYQVAKRTADLYGKEMPPVHVKVWSDIPLARGLGSSAAAIVAAIELADELCGLKLSEADKLHLASLEEGHPDNAGASLVGGLVIGLHEDDETQMIRVPNADIDVVVVIPFYEVLTRDARDVLPKEFPYADAVKASAVSNILIAAIMSKDWPLVGKIMKKDMFHQPYRAMLVPELSKVEHVAEMKGAYGTALSGAGPTILVMTEKGKGEELKEQLALHFPHCEVDALTVPKEGSIIERNPLYQVKSV
protein production: not failed

MNEDALTFLSRQHPYDELPAGVLNDVAAQVEKLSVAEGEMIYAYGEPLEGLYIIQSGLVDVRDQSDTQVSMLERGNSFGERGLLADGNAVTSARAVRDTLLIRVPVSLFNTLRTEQSPFQRFFARSSARPDKSATQQTSLAQVSVDALMVRNPVTCTPGTSVVDAAVLMTSRRISCLCITEEDRLTGIVTLRDLVGKALAAGLPPQTPLSDIIQNEPVSLPPTAIGSDVLHMMMEYNLGHLPIVDAGKLVGIVTQTDLTRYQATTAAGLVADAARAQSVEALADITGRIPALLVQLVAAGNRHDVVTRMITDIADVVTRRLLNMAEEKLGPAPLRYLWLACGSQGRQEQTGVSDQDNCLILEDGASRDDIAYFHEMATFVSDGLNACGYVYCPGDMMATNPRWCQPLSVWKEYFNGWIKSPSKEAQMLASVMFDLRPIGGDASLFHGMQQATLEKAAKNSIFTAHMASNSLTHQTPLGLLRGLATISSGDHRKTIDTKLNGVVPVVDLGRMYALQGKLTVANTRARLIAALNNKTISAKGGRDLLEAYDLVAQTRLEHQARLIKEGKAPDNYLPPARLSDFERSHLRDAFVVIKTMQSALMQGRGILG
protein production: failed

MNEELIKEKNFSDSVLSSYRMSLDHKKLQNKMIDNMLFRDISGGKKRTFVEEVEDNEEKNNKSAQKCIDGNDKNFIESRKKALENFQQNENNYDCTYKTIKKKNISGCNTTTKLKDVNSSEECQLCLMPNSDSLHGNFPPTFYKLTCDHIFHLMCLYETVIRRECRKTCCICHNELSENDKNEIINKVKLEKKENEKKSKLLFKVMKLQAENKDYPRKDICS
protein production: failed

MNEFETLLNSVEDVKVRDVVKGEILSVENGQATVAIVGTGVEGVLTLREITNDKDADINTFVKPGDVLDLLVIKQIVGKEAEGANVYLLSLKRLEARKAWTQLEGKEGEIVTVKVTKDVKGGLSVDYNGVRGFIPASMIDTYFVKDTKKFVGEEIEAKIIEVNASENRFILSRRAVVEAEAIEMRKEAFAQLQEGDIVEGTVSRVTNFGAFVDLGGIDGLVHVSELSHSRIKRPSDAVKPGDVVNVKILKLDPEAGRLSLSLKATQPGPWEQVEEKAPVGSTVEGTVKRLTDFGAFVELYPGVEGLVHVSQISWERVENPKDVLKVGQVVNVKVLDVKPAEERISLSIKALEEAPARPARNNDNDGEKRDRKPRAPRKAAKPSYDLPETQEGFSLADFLGEDFDINDLLEHHHHHH
protein production: not failed

MNEIFGIDLGTTYSCISYVDEYGRPVVVPNAENERITPSVVFFDGDNVIVGDVAKENSKMYPEDVVSFVKRSMGDENFYFEHGGKNYHAEEISSFILRKLISDAENNLGQKINDVVITCPAYFGINEREATKLAGEIAGLNVKAIINEPTAAAVAYGVDYDKDKVVLVYDLGGGTFDVTMIDVKKDSIKVICTGGDHNLGGKDWDDALIAYMAEQYKEITGNDKDILEDPETCQELQLLAERVKKTLSQREKAPISINYEGERAKIEITRQKFNELTYDLLQRTVNLMDDMLKEAAKKNYTSFDEILLVGGSSRMPQVEEIIKNKYNIEPKVFDPDEAVSKGAALYGWKLSVNDELVRRISEETGKDIEDIKKSIDEKSIDENVVEAAAKRVADDTGYTLSAVKASNVKVVNVVSKSFGVVTYNNEEKEVVYNLIIKNSEVPYEFTERFGTREENQENVMIKIVEDELSDKIVDIAYGNEIGEAELVLPENLPKNSPVDITFKLNEEGRLEIKAIEAVEKREISTSIETSSVIKGKDLEEAKERNKNIEVS
protein production: failed

MNENAPTHKSSHKVKTHTPVSGYHIEDLRTYPTEKLLEIANKLKVENPQEFKRQDLMFEILKTQVTQGGYILFTGILEIMPDGYGFLRGFDGSFSDGHNDTYVSPSQIRRFALRNGDIVTGQVRSPKDQEKYYALLKIEAINYSPSDEIRNRPLFDNLTPLFPDEQIKLEYEPTKVTGRMLDLFSPVGKGQRALIVAPPRTGKTELMKELAQGITSNHPEVELIILLVDERPEEVTDMQRSVKGQVFSSTFDLPANNHIRIAELVLERAKRRVEMGKDVVVLLDSITRLARAYNAVTPSSGKVLSGGVDANALHRPKRFFGAARNIEEGGSLTIIATALIETGSRMDEVIFEEFKGTGNSEIVLARNIADRRIYPAFDILKSGTRKDNILLGKDRLTKVWVLRNVMQQMDDIEALSFVYSKMQQTKDNEEFLNLMNEK
protein production: failed

MNENHKELISIGLTVSIVIFSLYIVHKFIPSMIWAAIIVIATYPLYTRWRKLFGNKHNTSAFLFTTLMGLLFLIPLSWLIGILIKESQLFINFLQHINKEGGAAPEFFKNIPLVGDDLIQYWDVNIGKPGNIKEFLSNLHVTLTPTSYYIKQIGVNLAHRSFQVGFTLLTLFFFYRDGDKLLLQIQHIGEYCLGDRWFRYSDRLPSALRGTVNGTIVVGIGVGILMGVCYALVGFPAPTLTGFITALAAMIPFVVPVVFIIVALILLSVGSLIGGIIVLVWGTLVMFVADHFVKPVLIGGAIQLPFLAVLFGILGGVETLGLLGLFLGPMVMVLFVTLWQEPQGHKKSSG
protein production: failed

MNERRKAELVLLGATFIWGSTFPVMKIGVEDFPPITFIALRFGIASFVLFLALRKHIRKDALFPGLILGFTLFLGHGFQIVGLKYTTPSNSAFITSLYVVFTPFIAFLFFRKGLKMFDAFSLSLAVIGLYLISNAELRLNYGDALTVVAALSFAFQIVLVEYFGNLGVGLAFWQIFWNFILSTVYAGIFEGISLPSDPKVLGGIIYTGIFATALSFTLQVKYQPKVESYKAAIIYSSEPIFAHLLALAFLNDRLPPKGYLGAFLILLAVWLELYQERKNY
protein production: failed

MNESERKIVEEFQKETGINFKNEELLFRALCHSSYANEQNQAGRKDVESNEKLEFLGDAVLELFVCEILYKKYPEAEVGDLARVKSAAASEEVLAMVSRKMNLGKFLFLGKGEEKTGGRDRDSILADAFEALLAAIYLDQGYEKIKELFEQEFEFYIEKIMKGEMLFDYKTALQEIVQSEHKVPPEYILVRTEKNDGDRIFVVEVRVNGKTIATGKGRTKKEAEKEAARIAYEKLLKERS
protein production: not failed

MNFAGKHVGFGLTGSHCTYHEVLPQMERLVELGAKVTPFVTHTVQTTDTKFGESSEWINKIKQITEEPIVDSMVKAEPFGPKTPLDCMVIAPMTGNSTSKFANAMTDSPVLMGAKATLRNGKPVVVGISTNDALGLNGINIMRLMATKNIYFIPFGQDNPQVKPNSLVARMEALPETIEAALRGQQYQPVLIEKFRD
protein production: not failed

MNFLSQRYTGKSLHPDETKCYKNFTQTAQKLTHRLAESINHYVNHIDCVINTNLYNRLLAEKKESNHMIYKERETWLEAILNTLPDHVFILDESGRYIESFGGTHHSKTFNAERYIGLQLSDVLSPTKADELMGFIFDVMQDNETKVVKYNLSLHDHLLLPIEELEALENPEEMWFEAIIKPVNAPENANKLVIWSVRDITKTHLLEQRLKQLSETDALTGLLNRRAFISNLDNAIIQHTKRSQTLSCLMIDIDHFKDINDSVGHFSGDHVITRIAHVCQGVIRGSDFIGRLGGEEFAVILTDTNAIQAYEVAERIRQAIQATICHVDDVEITTTVSIGVAELNSQQSNAKELLIEADKAMYYSKHSGRNQVTLAYENLPDLKLYQAGHLKIQRVS
protein production: failed

MNFNRFTQRAKKAIDLAFESAKSLGHNIVGSEHILLGLLREEEGIAAKVLSKVGFTEAYLEGKIVDMEGKGEEISEDIVLSPRSKQILELSGMFANKLKTNYIGTEHILLAIIQEGEGIANKILNYAGVNDRTLAQLTIDMMG
protein production: not failed

MNFQENLAALDLEYLWHPCSQMQEHQNFPIIPIKKAQGIYLYDFNDNAYMDLISSWWVNLFGHNNAYISQQLKNQIDDLEHVLLASFSHKPIITLSQRLCQLTHMDKCFYADNGSSCVEIALKMSYHAHFLKNQTRRKKLFLSLSNSYHGETLGALSVGDVKLYKDTYTPLLLKNLTTPVPKNDHEIENSLNALKRLLDKHSEEICAFIAEPLLQCAGNMHIYSARYLKQAVLLCKQKNIHIIFDEIATGFGRTGSMFAYEQCEIKPDFLCLSKGISGGYLPLSALLTHNEIYNQFYAPYEENKAFLHSHSYTGNALACACANATLDIFEKENVIEKNKALSGFIFNTLQNALKPLMEQQVVSDLRHLGMVFAFEVFIQTKERLSLAVFKKTLKKGLLLRPLNNTIYLMPPYIITHEEVKKAVAGLVEILDELRKG
protein production: failed
